Reference: patent US20240383982A1 (Genmab, published 2024)

T1: human recombinant His tagged B7H4 protein (Sino Biological cat. no. 10738-H08H) (human, UniProt Q7Z7D3 29-258)
T1 construct: Bought protein; theoretical mass 26.8 kDa; also called human B7H4; human B7H4 extracellular domain
T1 sequence: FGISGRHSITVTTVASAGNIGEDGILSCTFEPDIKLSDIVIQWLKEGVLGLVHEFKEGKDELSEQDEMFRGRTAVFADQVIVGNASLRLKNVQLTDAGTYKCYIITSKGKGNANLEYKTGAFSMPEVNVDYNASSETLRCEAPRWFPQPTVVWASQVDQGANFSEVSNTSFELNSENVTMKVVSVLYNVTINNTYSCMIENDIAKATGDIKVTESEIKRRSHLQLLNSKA

T2: pig (Sus scrofa) B7H4, full length, on HEK-293F cells (pig, UniProt Q7Z7D3 26-282 (human entry))
T2 construct: Uniprot F1SAY4; also called pig B7H4
T2 chain: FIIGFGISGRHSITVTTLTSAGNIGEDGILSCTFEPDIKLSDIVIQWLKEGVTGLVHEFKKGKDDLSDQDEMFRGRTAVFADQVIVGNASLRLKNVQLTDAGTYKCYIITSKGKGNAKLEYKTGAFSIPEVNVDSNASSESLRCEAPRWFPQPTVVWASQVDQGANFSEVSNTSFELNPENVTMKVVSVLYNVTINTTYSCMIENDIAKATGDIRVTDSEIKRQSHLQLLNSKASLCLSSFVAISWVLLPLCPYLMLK


Key:
[1] = molecular target: T1, human recombinant His tagged B7H4 …; test: BLI (Octet HTX); antibody on anti-human IgG Fc capture sensor, human B7H4 ECD-His in solution; 1st experiment
Procedure: Target binding affinity of B7H4 antibodies was determined by label-free biolayer interferometry (BLI) on an Octet HTX instrument (FortéBio). Experiments were carried out while shaking at 1,000 RPM at 30° C. […] Anti-Human IgG Fc Capture (AHC) biosensors (FortéBio, cat. no. 18-5060) were pre-conditioned by exposure to 10 mM glycine (Sigma-Aldrich, cat. no. 15527) buffer pH 1.7 for 5 s, followed by neutralization in Sample Diluent (FortéBio, cat. no. 18-1048) for 5 s; both steps were repeated 2 times. Next, AHC sensors were loaded with antibody (1 μg/mL in Sample diluent) for 600 s. […] The theoretical molecular mass of human B7H4 and mouse B7H4 (as ECD-His tagged molecules) based on their amino acid sequences (26.8 kDa and 26.6 kDa respectively) were used for calculations. For each antibody a reference sensor was used, which was incubated with Sample Diluent instead of antigen. AHC sensors were regenerated by exposure to 10 mM glycine buffer pH 1.7 for 5 s, followed by neutralization in Sample Diluent for 5 s; both steps were repeated twice. Subsequently sensors were loaded again with antibody for the next cycle of kinetics measurements.
Data were acquired using Data Acquisition Software v9.0.0.49d (FortéBio) and analyzed with Data Analysis Software v9.0.0.12 (FortéBio). Data traces were corrected per antibody by subtraction of the reference sensor. The Y-axis was aligned to the last 10 s of the baseline, Interstep Correction alignment to dissociation and Savitzky-Golay filtering were applied. Data traces with a response<0.05 nm were excluded from analysis. The data was fitted with the 1:1 Global Full fit model using a window of interest for the association and dissociation times set at 300 s and 200 s respectively.

[2] = molecular target: T2, pig (Sus scrofa) B7H4, full length, on …; test: flow cytometry, HEK-293F cells transiently transfected with pig B7H4 [panel Pig B7H4]
Procedure: Cells (3×10⁴ cells/well) were incubated in polystyrene 96-well round-bottom plates (Greiner bio-one, cat. no. 650180) with serial dilutions of antibodies (ranging from 0.000458 to 30 μg/mL in 4-fold dilution steps) in 100 μL PBS/0.1% BSA/0.02% azide (staining buffer) at 4° C. for 30 min. Experiments were performed in technical duplicate. After washing twice in staining buffer, cells were incubated in 50 μL secondary antibody at 4° C. for 30 min. As a secondary antibody, R-Phycoerythrin (PE)-conjugated goat-anti-human IgG F(ab′)₂ (1:500 in FACS buffer; Jackson ImmunoResearch Laboratories, Inc., West Grove, PA, cat. no. 109-116-098), was used. Cells were washed twice in staining buffer, re-suspended in 30 μL FACS buffer containing Topro-3 (1:10,000 dilution) and analyzed on an iQue Screener (Intellicyt Corporation, USA). Binding curves were analyzed using non-linear regression (sigmoidal dose-response with variable slope) using GraphPad Prism V7.02 software (GraphPad Software, San Diego, CA, USA).

Row | Kd [1] [nM] | koff [1] [s⁻¹] | kon [1] [M⁻¹ s⁻¹] | Binder | binding result [2]
1 | 57 | 0.0054 | 94000 | IgG1-B7H4-C1-N52S-FEAR (antibody, V domains shown, Full length human IgG1 with L234F, L235E, D265A, K409R (FEAR) heavy chain constant region and kappa light chain; bivalent, monospecific; also called IgG1-B7H4-C1-052S-FEAR) VH: QVQLQQWGAGLLKPSETLSLTCAVYGGSFSGYYWSWIRQPPGKGLEWIGEISHSGSTNYNPSLKSRVTISIDTSKNQFSLKLTSVTAADTAVFYCARGLFNWNFDSWGQGTLVTVSS VL: DIQMTQSPSSLSASVGDRVTITCRASQGIRNDLGWYQQKPGKAPKRLIYGASSLQSGVPSRFSGSGSGTEFTLTISSLQPEDFATYYCLQHNSYPRTFGQGTTVEIKR | 
2 |  |  |  | bsIgG1-huCD3-H101G-FEALxB7H4-C1-N52S-FEAR (bispecific antibody, also called bslgG1-huCD3-H101G-FEALxB7H4-C1-N52S-FEAR; BslgG1-huCD3-H101G-FEALxB7H4-C1-N52S-FEAR) heavy 1: not shown light 1: not shown heavy 2: QVQLQQWGAGLLKPSETLSLTCAVYGGSFSGYYWSWIRQPPGKGLEWIGEISHSGSTNYNPSLKSRVTISIDTSKNQFSLKLTSVTAADTAVFYCARGLFNWNFDSWGQGTLVTVSSASTKGPSVFPLAPSSKSTSGGTAALGCLVKDYFPEPVTVSWNSGALTSGVHTFPAVLQSSGLYSLSSVVTVPSSSLGTQTYICNVNHKPSNTKVDKRVEPKSCDKTHTCPPCPAPEFEGGPSVFLFPPKPKDTLMISRTPEVTCVVVAVSHEDPEVKFNWYVDGVEVHNAKTKPREEQYNSTYRVVSVLTVLHQDWLNGKEYKCKVSNKALPAPIEKTISKAKGQPREPQVYTLPPSREEMTKNQVSLTCLVKGFYPSDIAVEWESNGQPENNYKTTPPVLDSDGSFFLYSRLTVDKSRWQQGNVFSCSVMHEALHNHYTQKSLSLSPGK light 2: DIQMTQSPSSLSASVGDRVTITCRASQGIRNDLGWYQQKPGKAPKRLIYGASSLQSGVPSRFSGSGSGTEFTLTISSLQPEDFATYYCLQHNSYPRTFGQGTTVEIKRTVAAPSVFIFPPSDEQLKSGTASVVCLLNNFYPREAKVQWKVDNALQSGNSQESVTEQDSKDSTYSLSSTLTLSKADYEKHKVYACEVTHQGLSSPVTKSFNRGEC | no binding (tested: 30 µg/ml)
